# Measurements: paper doi:10.1101/2025.10.20.683367
# What was measured:
# [1] = molecular target: Methanoculleus sp. schizorhodopsin (Methanoculleus sp. (metagenome-assembled genome)); assay: cryo-EM structure
# [2] = molecular target: Methanoculleus taiwanensis schizorhodopsin (Methanoculleus taiwanensis); assay: cryo-EM structure
stoichiometry N [1],stoichiometry N [2],Substance
3,–,Methanoculleus sp. schizorhodopsin (natural protein)
–,3,Methanoculleus taiwanensis schizorhodopsin (natural protein)
